Results: patent US6423827 (UNIVERSITY OF MEDICINE AND DENTISTRY OF NEW JERSEY, dated 2002)

Molecular target: T1, recombinant rat LAMP (limbic system-associated membrane protein) expressed at the surface of CHO cells (CHOL … (rat, UniProt Q62813 29-315, PI (GPI) linkage to the membrane at the processed C-terminus, at or near Asn315)); N-linked glycosylation (apparent 55 kDa))
T1 construct: The C-terminal limit 315 is only 'at or near'; also called LAMP cDNA transfected cells
T1 sequence: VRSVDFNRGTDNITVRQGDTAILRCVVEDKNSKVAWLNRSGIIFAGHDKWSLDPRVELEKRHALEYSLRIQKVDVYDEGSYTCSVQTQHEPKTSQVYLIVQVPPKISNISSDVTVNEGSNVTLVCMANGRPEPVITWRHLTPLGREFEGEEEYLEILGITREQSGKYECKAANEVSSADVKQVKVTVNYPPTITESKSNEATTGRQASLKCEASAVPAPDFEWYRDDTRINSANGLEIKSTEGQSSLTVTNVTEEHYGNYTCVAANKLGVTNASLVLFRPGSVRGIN
Test: fluorescent beads coated with native LAMP, incubated with CHO cells expressing rat LAMP
Description: To test whether CHO_L cells can bind external LAMP, fluorescent synthetic beads of 2 μm diameter, which have reactive sites for covalently linking protein (Covasphere™ beads, Duke Scientific, Palo Alto, Calif.), were coated with native LAMP that had been released from hippocampal membranes with PI-specific phospholipase C. The beads were incubated with the recombinant cells and the extent of binding to the cell surface determined.

B1: native rat LAMP from hippocampal membranes (receptor)
chain: T1 sequence
modifications: N-linked glycosylation (apparent 64-68 kDa)
notes: The C-terminal limit 315 is only 'at or near'; also called native LAMP; external LAMP
binding result: binds
